Experimental data from publication PMC6539845 (International Journal of Molecular Sciences, 2019).
Values joined by “and” are separate entries in the source; they are usually repeats but may differ in a detail not shown here. Equal values may be shown once.

How the values were obtained:
[1] = target: the molecule itself; experiment: native MS; single proteins, 5–20 μM monomers, 150 mM ammonium acetate (pH 6.8–8.0), nanoflow electrospray
[2] = target: T1, human proteasome α7 subunit, wild type (human, UniProt P25788 1-255); experiment: native MS; α4 or α6 (4 μM monomers) mixed with α7 (2 μM tetradecamer), 20 °C, 1 h, 150 mM ammonium acetate; settings: both partners purified
T1 construct: proteasome subunit α7 (PSMA3), human, residues 1-255; wild-type construct in pRSFDuet-1; also called PSMA3; α7 homotetradecamer; copies: 14
T1 sequence (P25788 whole entry, the tested form may be a part): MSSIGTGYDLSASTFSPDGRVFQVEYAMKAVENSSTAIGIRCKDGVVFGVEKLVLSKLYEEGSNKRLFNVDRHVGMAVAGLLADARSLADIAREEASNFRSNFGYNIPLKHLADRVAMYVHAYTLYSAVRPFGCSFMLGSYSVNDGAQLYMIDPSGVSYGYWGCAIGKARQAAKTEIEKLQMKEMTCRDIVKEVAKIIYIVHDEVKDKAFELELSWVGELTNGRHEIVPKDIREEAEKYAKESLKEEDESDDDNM

B1: human proteasome α3 subunit (natural protein, UniProt P25789 1-261, looked up)
chain: MSRRYDSRTTIFSPEGRLYQVEYAMEAIGHAGTCLGILANDGVLLAAERRNIHKLLDEVFFSEKIYKLNEDMACSVAGITSDANVLTNELRLIAQRYLLQYQEPIPCEQLVTALCDIKQAYTQFGGKRPFGVSLLYIGWDKHYGFQLYQSDPSGNYGGWKATCIGNNSAAAVSMLKQDYKEGEMTLKSALALAIKVLNKTMDVSKLSAEKVEIATLTRENGKTVIRVLKQKEVEQLIKKHEEEEAKAEREKKEKEQKEKDK
notes: proteasome subunit α3 (PSMA4), human, residues 1-261; the vector holds a TEV protease cleavage site preceding the gene; also called PSMA4
- stoichiometry N [1]: 2

B2: human proteasome α4 subunit (natural protein, UniProt O14818 1-248, looked up)
chain: MSYDRAITVFSPDGHLFQVEYAQEAVKKGSTAVGVRGRDIVVLGVEKKSVAKLQDERTVRKICALDDNVCMAFAGLTADARIVINRARVECQSHRLTVEDPVTVEYITRYIASLKQRYTQSNGRRPFGISALIVGFDFDGTPRLYQTDPSGTYHAWKANAIGRGAKSVREFLEKNYTDEAIETDDLTIKLVIKALLEVVQSGGKNIELAVMRRDQSLKILNPEEIEKYVAEIEKEKEENEKKKQKKAS
notes: proteasome subunit α4 (PSMA7), human, residues 1-248; subcloned into the NdeI and SalI sites of pET28b; also called PSMA7
- stoichiometry N [1]: 2
- stoichiometry N [2]: 7 α7 subunits per α4 and 14 α7 subunits per α4

B3: human proteasome α5 subunit (natural protein, UniProt P28066 1-241, looked up)
chain: MFLTRSEYDRGVNTFSPEGRLFQVEYAIEAIKLGSTAIGIQTSEGVCLAVEKRITSPLMEPSSIEKIVEIDAHIGCAMSGLIADAKTLIDKARVETQNHWFTYNETMTVESVTQAVSNLALQFGEEDADPGAMSRPFGVALLFGGVDEKGPQLFHMDPSGTFVQCDARAIGSASEGAQSSLQEVYHKSMTLKEAIKSSLIILKQVMEEKLNATNIELATVQPGQNFHMFTKEELEEVIKDI
notes: proteasome subunit α5 (PSMA5), human, residues 1-241; the vector holds a TEV protease cleavage site preceding the gene; also called PSMA5
- stoichiometry N [1]: 2

B4: human proteasome α1 subunit (natural protein)
chain: not shown
notes: proteasome subunit α1 (PSMA6), human, residues 1-246; subcloned into the NdeI and SalI sites of pET28b; also called PSMA6
- stoichiometry N [1]: 2

B5: human proteasome α2 subunit (natural protein, UniProt P25787 1-234, looked up)
chain: MAERGYSFSLTTFSPSGKLVQIEYALAAVAGGAPSVGIKAANGVVLATEKKQKSILYDERSVHKVEPITKHIGLVYSGMGPDYRVLVHRARKLAQQYYLVYQEPIPTAQLVQRVASVMQEYTQSGGVRPFGVSLLICGWNEGRPYLFQSDPSGAYFAWKATAMGKNYVNGKTFLEKRYNEDLELEDAIHTAILTLKESFEGQMTEDNIEVGICNEAGFRRLTPTEVKDYLAAIA
notes: proteasome subunit α2 (PSMA2), human, residues 1-234; subcloned into the NdeI and XhoI sites of pRSFDuet-1; no tag is named; also called PSMA2
- stoichiometry N [1]: 2
